2 molecules from paper PMC12034804 can be followed below.

A value given as a limit tells only on which side of the number the result lay.

Assay [1] has as its target enhanced green fluorescent protein (eGFP) [GFP: P42212]. The assay is described as follows: BLI; ForteBio sensors loaded with 20 nM solutions, baseline in PBS with 1 mg/ml BSA, single concentration of analyte, 1000 rpm, 1:1 binding model, Kd from kd : ka; the section's heading calls it isothermal titration calorimetry; who was on the sensor is not told. On the technique in general: In BLI a coated tip is dipped into the sample, and binding shifts an interference pattern.

Assay [2] deals with eGFP-CD24 (CD24 fused with eGFP at the N-terminus), on CHO-CD24 cells (UniProt P25063).
The target is the same in assay [3]. This is another data set of the same source.
Assay [4] has as its target de-N-glycosylated eGFP-CD24, on CHO-CD24 cells treated with nbGFP-PNGF (UniProt P25063). The assay is described as follows: flow cytometry on cells; CHO-CD24 cells incubated with 5 nM PNGF or nbGFP-PNGF for 2 hours, with or without 50 µM P-3Fax-Neu5Ac; bound enzyme dissociated in acidic buffer (100 mM Glycine, 150 mM NaCl, pH 3.0, 0.1% Tween-20) for 2 min; then human Siglec-10 Fc chimera, biotin anti-human IgG Fc, Cy5-streptavidin. For orientation: In flow cytometry, cells or beads pass a laser one at a time.

The Kd is the constant that tells how readily two partners part at equilibrium. Turning to “nbGFP-PNGF (Peptide-N-glycosidase F fused to an N-terminal nanobody against eGFP)”, the Kd in assay [1] came to 5.58 nM. This molecule also came in with a de-N-glycosylation of eGFP-CD24 on CHO cells (western blot, 2 h): concentration at which it is complete; 500 nM PNGF without the nanobody could not in assay [2] of 5 nM.

B1: recombinant human Siglec-10 Fc chimera (Fc fusion)
chain: MDGRFWIRVQESVMVPEGLCISVPCSFSYPRQDWTGSTPAYGYWFKAVTETTKGAPVATNHQSREVEMSTRGRFQLTGDPAKGNCSLVIRDAQMQDESQYFFRVERGSYVRYNFMNDGFFLKVTALTQKPDVYIPETLEPGQPVTVICVFNWAFEECPPPSFSWTGAALSSQGTKPTTSHFSVLSFTPRPQDHNTDLTCHVDFSRKGVSAQRTVRLRVAYAPRDLVISISRDNTPALEPQPQGNVPYLEAQKGQFLRLLCAADSQPPATLSWVLQNRVLSSSHPWGPRPLGLELPGVKAGDSGRYTCRAENRLGSQQRALDLSVQYPPENLRVMVSQANRTVLENLGNGTSLPVLEGQSLCLVCVTHSSPPARLSWTQRGQVLSPSQPSDPGVLELPRVQVEHEGEFTCHARHPLGSQHVSLSLSVHYSPKLLGPSCSWEAEGLHCSCSSQASPAPSLRWWLGEELLEGNSSQDSFEVTPSSAGPWANSSLSLHGGLSSGLRLRCEAWNVHGAQSGSILQLPDKKGLISTAFSN
In assay [3], B1 returned a phagocytosis of CHO-CD24 cells by mouse bone marrow-derived macrophages after treatment with nbGFP-PNGF, against control (flow cytometry) of 0.5 fold. The molecule further yielded a percent of the CD24/Siglec-10 interaction that is due to the N-glycans (lost on de-N-glycosylation) in assay [4] of over 82%.
